B1: Telomere length regulator protein RIF1 (Saccharomyces cerevisiae), P29539 (parent)
chain: MSKDFSDKKKHTIDRIDQHILRRSQHDNYSNGSSPWMKTNLPPPSPQAHMHIQSDLSPTPKRRKLASSSDCENKQFDLSAINKNLYPEDTGSRLMQSLPELSASNSDNVSPVTKSVAFSDRIESSPIYRIPGSSPKPSPSSKPGKSILRNRLPSVRTVSDLSYNKLQYTQHKLHNGNIFTSPYKETRVNPRALEYWVSGEIHGLVDNESVSEFKEIIEGGLGILRQESEDYVARRFEVYATFNNIIPILTTKNVNEVDQKFNILIVNIESIIEICIPHLQIAQDTLLSSSEKKNPFVIRLYVQIVRFFSAIMSNFKIVKWLTKRPDLVNKLKVIYRWTTGALRNENSNKIIITAQVSFLRDEKFGTFFLSNEEIKPIISTFTEIMEINSHNLIYEKLLLIRGFLSKYPKLMIETVTSWLPGEVLPRIIIGDEIYSMKILITSIVVLLELLKKCLDFVDEHERIYQCIMLSPVCETIPEKFLSKLPLNSYDSANLDKVTIGHLLTQQIKNYIVVKNDNKIAMDLWLSMTGLLYDSGKRVYDLTSESNKVWFDLNNLCFINNHPKTRLMSIKVWRIITYCICTKISQKNQEGNKSLLSLLRTPFQMTLPYVNDPSAREGIIYHLLGVVYTAFTSNKNLSTDMFELFWDHLITPIYEDYVFKYDSIHLQNVLFTVLHLLIGGKNADVALERKYKKHIHPMSVIASEGVKLKDISSLPPQIIKREYDKIMKVVFQAVEVAISNVNLAHDLILTSLKHLPEDRKDQTHLESFSSLILKVTQNNKDTPIFRDFFGAVTSSFVYTFLDLFLRKNDSSLVNFNIQISKVGISQGNMTLDLLKDVIRKARNETSEFLIIEKFLELDDKKTEVYAQNWVGSTLLPPNISFREFQSLANIVNKVPNENSIENFLDLCLKLSFPVNLFTLLHVSMWSNNNFIYFIQSYVSKNENKLNVDLITLLKTSLPGNPELFSGLLPFLRRNKFMDILEYCIHSNPNLLNSIPDLNSDLLLKLLPRSRASYFAANIKLFKCSEQLTLVRWLLKGQQLEQLNQNFSEIENVLQNASDSELEKSEIIRELLHLAMANPIEPLFSGLLNFCIKNNMADHLDEFCGNMTSEVLFKISPELLLKLLTYKEKPNGKLLAAVIEKIENGDDDYILELLEKIIIQKEIQILEKLKEPLLVFFLNPVSSNMQKHKKSTNMLRELVLLYLTKPLSRSAAKKFFSMLISILPPNPNYQTIDMVNLLIDLIKSHNRKFKDKRTYNATLKTIGKWIQESGVVHQGDSSKEIEAIPDTKSMYIPCEGSENKLSNLQRKVDSQDIQVPATQGMKEPPSSIQISSQISAKDSDSISLKNTAIMNSSQQESHANRSRSIDDETLEEVDNESIREIDQQMKSTQLDKNVANHSNICSTKSDEVDVTELHESIDTQSSEVNAYQPIEVLTSELKAVTNRSIKTNPDHNVVNSDNPLKRPSKETPTSENKRSKGHETMVDVLVSEEQAVSPSSDVICTNIKSIANEESSLALRNSIKVETNCNENSLNVTLDLDQQTITKEDGKGQVEHVQRQENQESMNKINSKSFTQDNIAQYKSVKKARPNNEGENNDYACNVEQASPVRNEVPGDGIQIPSGTILLNSSKQTEKSKVDDLRSDEDEHGTVAQEKHQVGAINSRNKNNDRMDSTPIQGTEEESREVVMTEEGINVRLEDSGTCELNKNLKGPLKGDKDANINDDFVPVEENVRDEGFLKSMEHAVSKETGLEEQPEVADISVLPEIRIPIFNSLKMQGSKSQIKEKLKKRLQRNELMPPDSPPRMTENTNINAQNGLDTVPKTIGGKEKHHEIQLGQAHTEADGEPLLGGDGNEDATSREATPSLKVHFFSKKSRRLVARLRGFTPGDLNGISVEERRNLRIELLDFMMRLEYYSNRDNDMN
partner: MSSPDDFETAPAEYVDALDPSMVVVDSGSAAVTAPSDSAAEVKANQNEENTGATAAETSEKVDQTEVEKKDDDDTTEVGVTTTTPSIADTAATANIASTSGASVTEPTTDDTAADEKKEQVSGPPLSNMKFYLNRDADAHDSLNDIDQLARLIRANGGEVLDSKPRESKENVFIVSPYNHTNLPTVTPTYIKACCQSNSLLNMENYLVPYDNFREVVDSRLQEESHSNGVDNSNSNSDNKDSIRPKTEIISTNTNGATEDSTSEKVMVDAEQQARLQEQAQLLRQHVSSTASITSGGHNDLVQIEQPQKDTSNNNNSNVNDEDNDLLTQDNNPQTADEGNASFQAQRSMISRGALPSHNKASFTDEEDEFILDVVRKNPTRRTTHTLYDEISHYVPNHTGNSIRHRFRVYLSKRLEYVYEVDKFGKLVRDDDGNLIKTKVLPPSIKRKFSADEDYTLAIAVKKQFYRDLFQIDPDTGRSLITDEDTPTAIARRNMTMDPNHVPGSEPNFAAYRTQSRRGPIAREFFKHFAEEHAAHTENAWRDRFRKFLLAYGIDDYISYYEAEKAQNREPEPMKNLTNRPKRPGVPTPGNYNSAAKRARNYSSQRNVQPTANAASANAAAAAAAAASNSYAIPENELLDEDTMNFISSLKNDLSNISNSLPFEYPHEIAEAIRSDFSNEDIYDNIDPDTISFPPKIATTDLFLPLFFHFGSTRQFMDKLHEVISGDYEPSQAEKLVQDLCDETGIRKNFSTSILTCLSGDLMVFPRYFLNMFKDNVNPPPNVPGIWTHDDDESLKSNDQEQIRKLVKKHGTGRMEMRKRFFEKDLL
B2: DNA-binding protein RAP1 (Saccharomyces cerevisiae), P11938 (parent)
chain: B1 partner

In the first test the parent is B1. The settings on record: with rap1_yeast RAP1, P11938.
R1895E: the “effect of a mutation on the interaction” value is “decreasing interaction strength”.

In the case of L1905R, the “effect of a mutation on the interaction” value was “disrupting interaction strength”.

Take I1764R: the “effect of a mutation on the interaction” value is reported as “disrupting interaction strength”.

For I1760R, the “effect of a mutation on the interaction” value was “disrupting interaction strength”.

Turning to I1762R, the “effect of a mutation on the interaction” value was “disrupting interaction strength”.

The variants in the next test derive from B1. Particulars: with rap1_yeast RAP1, P11938. The source holds these as a separate data set.
For L1905R, the “effect of a mutation on the interaction” value is “decreasing interaction strength”.

The variants in another test derive from B2. The settings on record: with rif1_yeast RIF1, P29539.
For G760R, the “effect of a mutation on the interaction” value is “disrupting interaction strength”.

On to A733R, for which the “effect of a mutation on the interaction” value was “disrupting interaction strength”.
